Test results from patent US20260055184A1 (Hoffmann-La Roche, published 2026).

How the values were obtained:
[1] = molecular target: T1, CD3 binder CH2527 (VL_7-46(13)/VH_3-23(12)), as analyte MAK<CEA/CD3>rH; experiment: SPR (Biacore), 25°C, analyte MAK<CEA/CD3>rH
T1 construct: the rest of the analyte MAK<CEA/CD3>rH (a CEA/CD3 molecule by its name) is not described

[2] = molecular target: T1, CD3 binder CH2527 …; experiment: SPR (Biacore), 37°C, analyte MAK<CEA/CD3>rH
[3] = molecular target: T2, HER1 extracellular domain (human, UniProt P00533 25-645); experiment: SPR Biacore T100; HER1 extracellular domain amine-coupled on CM5, antibody injected at 3.125-50 nM, 1:1 Langmuir model
T2 construct: extracellular domain
Description: (§1) HER1 was immobilized on the surface of a CM5 biosensorchip using standard amine-coupling chemistry. The HER1 extracellular domain was injected in sodium acetate, pH 5.0 at 1 μg/ml. Reference control flow cells were treated in the same way but with vehicle buffer only. […] The association phase was 3 minutes and the dissociation time was 10 minutes. […] Kinetic rate constants and equilibrium dissociation constants were calculated by using the 1:1 Langmuir binding model within the Biaevaluation software.

[4] = molecular target: T2, HER1 extracellular domain; experiment: SPR (Biacore T100), HER1 extracellular domain amine-coupled on a CM5 chip, antibody as analyte, 37 °C, 1:1 Langmuir model
Description: as §1

Binder | Kd [1] | koff [1] | kon [1] | Kd [2] | koff [2] | kon [2] | Kd [3] | koff [4] | kon [4]
4.24.72 (antibody, V domains shown) VH: QIQLVQSGPELKKPGETVKISCKASGYTVTDYSMNWVKQAPGKCLKWMGWINTETGEPRYTDDFKGRFAFSLETSASTAYLQINNLKNEDSATYFCAREGDYDVFDYWGHGTTLKVSS VL: DIVLTQSPASLAVSLGQRATISCRASKSVSTSSYSYMHWYQQKPGQPPKLLIKYVSYLESGVPARFSGSGSGTDFTLNIHPVEEEDAATYYCQHSREFPYTFGCGTKLEIK | 14 nM | 0.00118 s⁻¹ | 87200 M⁻¹ s⁻¹ | 29 nM | 0.00445 s⁻¹ | 155000 M⁻¹ s⁻¹ | – | – | –
HER1-binding IgG1 antibody GA201 (antibody, V domains shown, produced in 293-F cells; also called anti HER1 antibody GA201; GA201 parental unmasked antibody) VH: QVQLVQSGAEVKKPGSSVKVSCKASGFTFTDYKIHWVRQAPGQGLEWMGYFNPNSGYSTYAQKFQGRVTITADKSTSTAYMELSSLRSEDTAVYYCARLSPGGYYVMDAWGQGTTVTVSS VL: DIQMTQSPSSLSASVGDRVTITCRASQGINNYLNWYQQKPGKAPKRLIYNTNNLQTGVPSRFSGSGSGTEFTLTISSLQPEDFATYYCLQHNSFPTFGQGTKLEIKR | – | – | – | – | – | – | 1 nM | 0.00012 s⁻¹ | 168000 M⁻¹ s⁻¹
anti-idiotypic CH2527 binder 4.15.64 (scFv, From mouse hybridomas (immunisation with CH2527 Fab)) scFv: QIQLVQSGPELKKPGETVRISCKASGYTFTDYSIHWVKQAPGKCLKWMGWINTETGEPAYADDFKGRFAFSLETSASTAYLQINNLKNEDTATFFCAHPYDYDVLDYWGQGTSVTVSSGGGGSGGGGSGGGGSGGGGSDTVLTQSPASLGVSLGQRATISCRASKSVSTSNYSYIHWYQQKPGQPPKLLIKYVSYLESGVPARFSGSGSGTDFTLNIHPVEEEDAATYYCQHSREFPWTFGCGTKLEIK | 96 nM | 0.0025 s⁻¹ | 26100 M⁻¹ s⁻¹ | 94 nM | 0.0135 s⁻¹ | 144000 M⁻¹ s⁻¹ | – | – | –
anti-idiotypic CH2527 binder 4.32.63 (scFv, From mouse hybridomas (immunisation with CH2527 Fab)) scFv: QVQLKESGPGLVAPSQSLSITCTVSGFSLTSYGVSWVRQPPGKCLEWLGIIWGDGSTNYHSALISRLSISKDNSKSQVFLKLNSLQTDDTATYYCAKGITTVVDDYYAMDYWGQGTSVTVSSGGGGSGGGGSGGGGSGGGGSDIQMTQSPASLSASVGETVTITCRASENIDSYLAWYQQKQGKSPQLLVYAATFLADDVPSRFSGSGSGTQYSLKINSLQSEDVARYYCQHYYSTPYTFGCGTKLEIK | 1 nM | 0.000105 s⁻¹ | 196000 M⁻¹ s⁻¹ | 2 nM | 0.000652 s⁻¹ | 346000 M⁻¹ s⁻¹ | – | – | –
